For 5 molecules, Kd results are on record in doi:10.1101/2024.10.03.616038 (2024).

The term Kd denotes a measure of binding affinity in units of concentration. Read a low Kd as higher affinity.

First the molecules themselves.
B1: S2K146 (IgG1) (antibody, V domains shown)
VH: QVQLVESGGVVVQPGGSLRLSCAASGFTFHDHTMHWVRQAPGKGLEWVSLITWNGGTIHYSDSVKGRFTISRDNSKNSLYLQMNSLRTEDTALYYCAKDLGRGGWYLPSDAWGQGTLVTVSS
VL: not shown
B2: REGN10987 (IgG1) (antibody, V domains shown)
VH: QVQLVESGGGVVQPGRSLRLSCAASGFTFSNYAMYWVRQAPGKGLEWVAVISYDGSNKYYADSVKGRFTISRDNSKNTLYLQMNSLRTEDTAVYYCASGSDYGDYLLVYWGQGTLVTVSS
VL: QSALTQPASVSGSPGQSITISCTGTSSDVGGYNYVSWYQQHPGKAPKLMIYDVSKRPSGVSNRFSGSKSGNTASLTISGLQSEDEADYYCNSLTSISTWVFGGGTKLTVL
B3: LY-CoV1404 (IgG1) (antibody, V domains shown)
VH: QITLKESGPTLVKPTQTLTLTCTFSGFSLSISGVGVGWLRQPPGKALEWLALIYWDDDKRYSPSLKSRLTISKDTSKNQVVLKMTNIDPVDTATYYCAHHSISTIFDHWGQGTLVTVSS
VL: QSALTQPASVSGSPGQSITISCTATSSDVGDYNYVSWYQQHPGKAPKLMIFEVSDRPSGISNRFSGSKSGNTASLTISGLQAEDEADYYCSSYTTSSAVFGGGTKLTVL
B4: DXP-604 (IgG1) (antibody, V domains shown)
VH: EVQLVESGGGLIQPGGSLRLSCAASGIIVSSNYMTWVRQAPGKGLEWVSVIYSGGSTFYADSVKGRFTISRDNSKNTLYLQMSSLRAEDTAVYYCARDLGPYGMDVWGQGTTVTVSS
VL: DIQLTQSPSFLSASVGDRVTITCRASQGISSDLAWYQQKPGKAPNLLIYAASTLQSGVPSRFSGSGSGTEFTLTISSLQPEDFATYYCQQLNSDLYTFGQGTKLEIK
B5: BD55-5840 (IgG1) (antibody, V domains shown)
VH: VQLAQSGSELRKPGASVKVSCDTSGHSFTSNAIHWVRQAPGQGLEWMGWINTDTGTPTYAQGFTGRFVFSLDTSARTAYLQISSLKADDTAVFYCARERDYSDYFFDYWGQGTLVTVSS
VL: EVVMTQSPASLSVSPGERATLSCRARASLGISTDLAWYQQRPGQAPRLLIYGASTRATGIPARFSGSGSGTEFTLTISSLQSEDSAVYYCQQYSNWPLTFGGGTKVEIK

In this test the target is SARS-CoV-2 Spike RBD, original (Wuhan) strain (SARS-CoV-2, UniProt P0DTC2). The experiment in a line: SPR.
The molecule B1 showed a Kd of 45.7 pM.

In turn, B2 gave an equilibrium dissociation constant (Kd) of 14500 pM.

The molecule B3 registered a Kd of 977 pM.

Consider B4, for which the Kd stood at 214 pM.

The molecule B5 returned a Kd of 75.9 pM.
